Literature values in publication PMC7460888.

Target: SARS-CoV-2 spike RBD RBD (SARS-CoV-2) (UniProt P0DTC2)

Substance: SBP1 (ACE2 alpha1 helix peptide)
- Kd: 47 nM
